Laboratory results as given in US20060078550.

Target: human prothrombin, P00734

B1: recombinant His-tagged porcine fgl2 protein generated by pfgl2bv infection of insect cells (protein)
chain: MKLKLSNWCWLSSAVLAAYGFLVVANNETEEIKDEAAKDACPVRLESRGKCEEVGGCPYQVNLPPLTLQLPKQFGRIEEVFKEVQNLKEIVNSLKKTCQDCRLQADDNRDPGRNGLLSPGTGAPGEADDSRVRELENEVNKLSSDLKNAKEEIDGLQGRLEKLSLVNMNNIENYVDNKVANLTFAVNSLDGKCSSRCPSQEQIQSRPVQHLIYKDCSEYYTIGKRSSEIYRVTPDPKNSSFEVYCDMETMGGGWTVLQARLDGSTNFTRTWRDYKVGFGNLRREFWLGNDKIHLLTKSKDMILRIDLEDFNGIKLYALYDHFYVANEFLKYRLHIGNYNGTAGDALRFSKHYNHDMKYFTTPDRDNDRYPSGNCGLYYSSGWWFDACLSANLNGKYYNQKYRGVRNGIFWGTWPGISEAQPGGYRSSFKEAKMMIRPKYFKP
  thrombin activity (chromogenic substrate Chromozym TH, change in OD 405 nm over time): A significant level of thrombin activity was generated by pfgl2bv-infected cell lysates in contrast to wild-type baculovirus-infected and uninfected controls
